The values below come from the supplement of paper PMC7125110.

B1: glmS ribozyme (parent)
chain: AUAAAAGCGCCAGAACUACAGAAAUGUAGUUGACGAGGAGGAGGUUUAUCGAAUUUUCGGCGGAUGCCUCCAAA

± gives the standard error. This sample holds only a part of the variants without activity. Some results are limits rather than exact numbers.

Holding throughout (settings): with glucosamine-6-phosphate
Data set [1] covers variants of B1. Put plainly: self-cleavage kobs at 40 uM GlcN6P; higher = faster cleavage; RNA array. A digest of the protocol:
(§1)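 Ribozyme variants carrying barcodes were transcribed in situ on sequenced MiSeq chips by E. coli RNA polymerase and tracked at 37 °C with a hybridised Cy3 probe. They were exposed to 40 μM to 10 mM glucosamine-6-phosphate in HEPES/KCl/Mg(OAc)2 buffer. kobs came from exponential decay fits of normalised per-tile medians, and kcat and KM from weighted Michaelis–Menten fits.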

The variants in data set [2] derive from B1. Put plainly: self-cleavage kobs at 160 uM GlcN6P; higher = faster cleavage; RNA array. Put shortly: as §1
Variants of B1 are the subject of data set [3]. Nature of the data set: self-cleavage kobs at 640 uM GlcN6P; higher = faster cleavage; RNA array. A digest of the protocol:
as §1

In data set [4] the parent is B1. Put plainly: self-cleavage kobs at 10000 uM GlcN6P; higher = faster cleavage; RNA array. Put shortly:
as §1

In data set [5] the parent is B1. Put plainly: self-cleavage kobs at 2500 uM GlcN6P; higher = faster cleavage; RNA array. A digest of the protocol:
as §1

With A14U G41U G44U, the “self-cleavage kobs at 40 uM GlcN6P” value with glucosamine-6-phosphate [1] is < 1e-05 s⁻¹. In addition, in the data set with glucosamine-6-phosphate [2], the “self-cleavage kobs at 160 uM GlcN6P” value was < 1e-05 s⁻¹. Moreover, the “self-cleavage kobs at 640 uM GlcN6P” value with glucosamine-6-phosphate [3] was < 1e-05 s⁻¹. In addition, the “self-cleavage kobs at 10000 uM GlcN6P” value in the data set with glucosamine-6-phosphate [4] is < 1e-05 s⁻¹.

As to U30G A36G, the “self-cleavage kobs at 40 uM GlcN6P” value with glucosamine-6-phosphate [1] was < 1e-05 s⁻¹. The “self-cleavage kobs at 160 uM GlcN6P” value with glucosamine-6-phosphate [2] was < 1e-05 s⁻¹. The “self-cleavage kobs at 640 uM GlcN6P” value in the data set with glucosamine-6-phosphate [3] was < 1e-05 s⁻¹. In the data set with glucosamine-6-phosphate [5], the “self-cleavage kobs at 2500 uM GlcN6P” value is < 1e-05 s⁻¹. Further, the “self-cleavage kobs at 10000 uM GlcN6P” value in the data set with glucosamine-6-phosphate [4] is < 1e-05 s⁻¹.

For G43C A53C U56C, the “self-cleavage kobs at 40 uM GlcN6P” value in the data set with glucosamine-6-phosphate [1] is < 1e-05 s⁻¹. The “self-cleavage kobs at 160 uM GlcN6P” value with glucosamine-6-phosphate [2] is < 1e-05 s⁻¹. Moreover, the “self-cleavage kobs at 2500 uM GlcN6P” value with glucosamine-6-phosphate [5] is < 1e-05 s⁻¹. Moreover, the “self-cleavage kobs at 10000 uM GlcN6P” value with glucosamine-6-phosphate [4] was < 1e-05 s⁻¹.

As to A6C G13A A52C, the “self-cleavage kobs at 40 uM GlcN6P” value with glucosamine-6-phosphate [1] is < 1e-05 s⁻¹. Moreover, in the data set with glucosamine-6-phosphate [5], the “self-cleavage kobs at 2500 uM GlcN6P” value was < 1e-05 s⁻¹. Also, the “self-cleavage kobs at 10000 uM GlcN6P” value in the data set with glucosamine-6-phosphate [4] was < 1e-05 s⁻¹.

For the variant U47A U49C, the “self-cleavage kobs at 40 uM GlcN6P” value with glucosamine-6-phosphate [1] is < 1e-05 s⁻¹. Besides, in the data set with glucosamine-6-phosphate [3], the “self-cleavage kobs at 640 uM GlcN6P” value is < 1e-05 s⁻¹. Also, in the data set with glucosamine-6-phosphate [5], the “self-cleavage kobs at 2500 uM GlcN6P” value is < 1e-05 s⁻¹.

Regarding G43A G44A G51A C58A, the “self-cleavage kobs at 40 uM GlcN6P” value in the data set with glucosamine-6-phosphate [1] is < 1e-05 s⁻¹. The “self-cleavage kobs at 10000 uM GlcN6P” value in the data set with glucosamine-6-phosphate [4] was < 1e-05 s⁻¹.

As for G7U A15G, the “self-cleavage kobs at 40 uM GlcN6P” value with glucosamine-6-phosphate [1] is < 1e-05 s⁻¹. The “self-cleavage kobs at 160 uM GlcN6P” value with glucosamine-6-phosphate [2] was < 1e-05 s⁻¹. In the data set with glucosamine-6-phosphate [3], the “self-cleavage kobs at 640 uM GlcN6P” value is < 1e-05 s⁻¹. In the data set with glucosamine-6-phosphate [5], the “self-cleavage kobs at 2500 uM GlcN6P” value is < 1e-05 s⁻¹. The “self-cleavage kobs at 10000 uM GlcN6P” value with glucosamine-6-phosphate [4] is < 1e-05 s⁻¹.

As for C8A G51U C61U, the “self-cleavage kobs at 40 uM GlcN6P” value with glucosamine-6-phosphate [1] is < 1e-05 s⁻¹. The “self-cleavage kobs at 160 uM GlcN6P” value with glucosamine-6-phosphate [2] is < 1e-05 s⁻¹. Further, the “self-cleavage kobs at 640 uM GlcN6P” value in the data set with glucosamine-6-phosphate [3] was < 1e-05 s⁻¹. Also, the “self-cleavage kobs at 2500 uM GlcN6P” value in the data set with glucosamine-6-phosphate [5] was < 1e-05 s⁻¹.

In the case of C16A U30A A33G U55C, the “self-cleavage kobs at 40 uM GlcN6P” value with glucosamine-6-phosphate [1] is < 1e-05 s⁻¹.

In the case of G9U C16G, the “self-cleavage kobs at 40 uM GlcN6P” value with glucosamine-6-phosphate [1] is < 1e-05 s⁻¹. Also, in the data set with glucosamine-6-phosphate [5], the “self-cleavage kobs at 2500 uM GlcN6P” value was < 1e-05 s⁻¹.

Take G37U G41A C68U: the “self-cleavage kobs at 40 uM GlcN6P” value with glucosamine-6-phosphate [1] was < 1e-05 s⁻¹.

On to C8U G29C, for which the “self-cleavage kobs at 40 uM GlcN6P” value in the data set with glucosamine-6-phosphate [1] was < 1e-05 s⁻¹. In addition, the “self-cleavage kobs at 160 uM GlcN6P” value in the data set with glucosamine-6-phosphate [2] was < 1e-05 s⁻¹. Besides, the “self-cleavage kobs at 640 uM GlcN6P” value in the data set with glucosamine-6-phosphate [3] was < 1e-05 s⁻¹. The “self-cleavage kobs at 2500 uM GlcN6P” value with glucosamine-6-phosphate [5] is < 1e-05 s⁻¹. Also, the “self-cleavage kobs at 10000 uM GlcN6P” value with glucosamine-6-phosphate [4] is < 1e-05 s⁻¹.

With C8U G29A, the “self-cleavage kobs at 40 uM GlcN6P” value in the data set with glucosamine-6-phosphate [1] was < 1e-05 s⁻¹. The “self-cleavage kobs at 2500 uM GlcN6P” value with glucosamine-6-phosphate [5] is < 1e-05 s⁻¹.

As to C61G C70U, the “self-cleavage kobs at 40 uM GlcN6P” value with glucosamine-6-phosphate [1] is < 1e-05 s⁻¹. Also, the “self-cleavage kobs at 10000 uM GlcN6P” value with glucosamine-6-phosphate [4] was < 1e-05 s⁻¹.

Take C34U G59U: the “self-cleavage kobs at 40 uM GlcN6P” value with glucosamine-6-phosphate [1] is < 1e-05 s⁻¹. The “self-cleavage kobs at 160 uM GlcN6P” value with glucosamine-6-phosphate [2] was < 1e-05 s⁻¹. For the same variant, in the data set with glucosamine-6-phosphate [3], the “self-cleavage kobs at 640 uM GlcN6P” value was < 1e-05 s⁻¹. The “self-cleavage kobs at 2500 uM GlcN6P” value in the data set with glucosamine-6-phosphate [5] is < 1e-05 s⁻¹. In addition, the “self-cleavage kobs at 10000 uM GlcN6P” value with glucosamine-6-phosphate [4] is < 1e-05 s⁻¹.

G40A G60A: the “self-cleavage kobs at 40 uM GlcN6P” value with glucosamine-6-phosphate [1] was < 1e-05 s⁻¹. Besides, the “self-cleavage kobs at 160 uM GlcN6P” value with glucosamine-6-phosphate [2] was < 1e-05 s⁻¹. Also, the “self-cleavage kobs at 640 uM GlcN6P” value with glucosamine-6-phosphate [3] is < 1e-05 s⁻¹.

With C11G G29A U49G U69G, the “self-cleavage kobs at 40 uM GlcN6P” value in the data set with glucosamine-6-phosphate [1] was 4.27e-05 ± 1.7e-05 s⁻¹.

Consider G29U G41A C71G, for which the “self-cleavage kobs at 40 uM GlcN6P” value with glucosamine-6-phosphate [1] was < 1e-05 s⁻¹.

Take A53U C71U: in the data set with glucosamine-6-phosphate [1], the “self-cleavage kobs at 40 uM GlcN6P” value is 0.000617 ± 6e-05 s⁻¹. Also, the “self-cleavage kobs at 160 uM GlcN6P” value in the data set with glucosamine-6-phosphate [2] is 0.00115 ± 0.0002 s⁻¹. In addition, the “self-cleavage kobs at 640 uM GlcN6P” value with glucosamine-6-phosphate [3] was 0.00728 ± 0.0012 s⁻¹. Besides, the “self-cleavage kobs at 2500 uM GlcN6P” value with glucosamine-6-phosphate [5] came out at 0.0165 ± 0.0031 s⁻¹. The “self-cleavage kobs at 10000 uM GlcN6P” value with glucosamine-6-phosphate [4] is 0.0301 ± 0.0058 s⁻¹.

Regarding C16G G40U C58G, in the data set with glucosamine-6-phosphate [1], the “self-cleavage kobs at 40 uM GlcN6P” value was < 1e-05 s⁻¹. Besides, in the data set with glucosamine-6-phosphate [5], the “self-cleavage kobs at 2500 uM GlcN6P” value is < 1e-05 s⁻¹.

Regarding U30A U54G, the “self-cleavage kobs at 40 uM GlcN6P” value in the data set with glucosamine-6-phosphate [1] is 0.000119 ± 2.1e-05 s⁻¹. Also, in the data set with glucosamine-6-phosphate [4], the “self-cleavage kobs at 10000 uM GlcN6P” value was determined as 0.00479 ± 0.00078 s⁻¹.
